In publication PMC4585926, “A RANKL mutant used as an inter-species vaccine for efficient immunotherapy of osteoporosis” (Scientific Reports, 2015):

B1: human RANKL ectodomain (residues 158-317), wild type [human] / mouse RANK extracellular domain [mouse] (parent complex)
chain 1: SKLEAQPFAHLTINATDIPSGSHKVSLSSWYHDRGWAKISNMTFSNGKLIVNQDGFYYLYANICFRHHETSGDLATEYLQLMVYVTKTSIKIPSSHTLMKGGSTKYWSGNSEFHFYSINVGGFFKLRSGEEISIEVSNPSLLDPDQDATYFGAFKVRDID
chain 2: VTPPCTQERHYEHLGRCCSRCEPGKYLSSKCTPTSDSVCLPCGPDEYLDTWNEEDKCLLHKVCDAGKALVAVDPGNHTAPRRCACTAGYHWNSDCECCRRNTECAPGFGAQHPLQLNKDTVCTPCLLGFFSDVFSSTDKCKPWTNCTLLGKLEAHQGTTESDVVCSSSMTLRRPPKEAQAYLPS

Variants of: B1
Test: SPR (Biacore, chelating NTA sensor chip); hRANKL or mutant injected at 0, 0.47, 0.94, 1.88, 3.75, 7.5, 15 and 30 nM; parent: 0.156 nM

| Kd [µM] | Variant |
| --- | --- |
| 0.00215 | chain 1 D143A |
| 0.0107 | chain 1 R66A |
| 0.0394 | chain 1 R66A, chain 1 D143A |
